Data reported in US20190077883A1.

What was measured:
[1] = biological target: recombinant human FcRn (SPR of Example 2) (human) (UniProt P55899); assay: SPR Biacore T200, pH 6.0, KD against IgG1-WT
[2] = biological target: recombinant human FcRn (SPR of Example 2) (human) (UniProt P55899); assay: SPR Biacore T200, IgG immobilised, hFcRn 1000.0-15.6 nM injected, pH 6.0, 25 C, 1:1 Langmuir
[3] = biological target: GST-tagged human FcRn (human; Schistosoma japonicum) (UniProt P55899); assay: ELISA pH 6.0, h9C12 variant captured on AdV5 hexon, GST-hFcRn detected with anti-GST-HRP
[4] = biological target: Monomeric His-tagged human FcRn (human) (UniProt P55899); assay: SPR Biacore 3000, IgG immobilised, monomeric hFcRn injected, pH 7.4
[5] = biological target: Monomeric His-tagged human FcRn (human) (UniProt P55899); assay: SPR Biacore 3000, pH 6.0, KD against IgG1 WT
[6] = biological target: Monomeric His-tagged human FcRn (human) (UniProt P55899); assay: SPR Biacore 3000, IgG immobilised, monomeric hFcRn injected, pH 6.0, 1:1 Langmuir

recombinant human FcRn (SPR of Example 2) (human), sequence (P55899 24-290 limits assumed, form in doubt): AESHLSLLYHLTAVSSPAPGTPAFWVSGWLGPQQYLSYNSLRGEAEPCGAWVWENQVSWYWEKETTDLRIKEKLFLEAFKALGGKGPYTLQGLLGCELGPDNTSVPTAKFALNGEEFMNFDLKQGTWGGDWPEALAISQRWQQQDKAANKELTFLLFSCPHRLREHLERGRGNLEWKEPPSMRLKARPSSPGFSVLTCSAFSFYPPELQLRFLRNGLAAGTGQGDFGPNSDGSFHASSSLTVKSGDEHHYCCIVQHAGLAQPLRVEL
Monomeric His-tagged human FcRn (human), sequence (P55899 24-290 limits assumed, form in doubt): as above

Substance	Fold change from WT (ELISA) pH 6.0 [3] [fold]	Fold change from WT [5] [fold]	Kd [6] [nM]	koff [6] [s⁻¹]	also measured
h9C12 IgG1-L309R/Q311R/N434W/M428E (antibody)	6				
h9C12 IgG1-N434W (antibody)		52.9	14.8	0.0032	Kd [4]: 1980 nM
h9C12 IgG1-Q311R/N434W/M428D (antibody)	3				Fold change from WT (KD) pH 6.0 [1]: 9.28 fold; Kd [2]: 29.4 nM; koff [2]: 0.0312 s⁻¹
h9C12 IgG1-M252S/Q311R/N434W/M428E (antibody)	6				
h9C12 IgG1-Q311R/N434W/M428E (antibody)	6	20.3	38.5	0.005	Fold change from WT (KD) pH 6.0 [1]: 29.3 fold; Kd [2]: 9.3 nM; koff [2]: 0.0111 s⁻¹
h9C12 IgG1-Q311R/N434W/M428E/H433K (antibody)	9				
h9C12 IgG1-Q311R (antibody)		1.1	687	0.0572	

The next lines start with results.

Fold change from WT (ELISA) pH 6.0 [3] [fold]	Fold change from WT [5] [fold]	Kd [6] [nM]	koff [6] [s⁻¹]	Substance	also measured
3				h9C12 IgG1-Q311R/N434P/M428E (antibody)	Fold change from WT (KD) pH 6.0 [1]: 11.3 fold; Kd [2]: 24.2 nM; koff [2]: 0.0405 s⁻¹
	8.4	93	0.0078	h9C12 IgG1-M252Y/S254T/T256E (antibody)	
	35.1	22.3	0.0036	h9C12 IgG1-Q311R/N434W (antibody)	
6				h9C12 IgG1-L309S/Q311R/N434W/M428E (antibody)	
6				h9C12 IgG1-L309K/Q311R/N434W/M428E (antibody)	
